This note sets out measurements from PMC9381698, “Generation of synthetic antibody fragments with optimal complementarity determining region lengths for Notch-1 recognition” (Frontiers in Microbiology, 2022).

Assay [1] deals with T1, recombinant Fc-tag-fused human Notch-1 extracellular domain (Homo sapiens, UniProt P46531).
T1 construct: Notch-1, human, extracellular domain; No catalogue number and no residue limits are printed; also called N1; source: bought: R&D Systems
The assay is described as follows: BLI; Octet RED384; Fabs immobilised on amine-reactive generation-2 or anti-Fab CH1 biosensors, target proteins in solution at three or more concentrations; 25 C, PBS; global 1:1 fit; apparent KD (Fc-Notch proteins may dimerize, avidity). The settings on record: both partners purified. In general terms: In BLI a coated tip is dipped into the sample, and binding shifts an interference pattern.
T1 sequence (P46531 19-1735): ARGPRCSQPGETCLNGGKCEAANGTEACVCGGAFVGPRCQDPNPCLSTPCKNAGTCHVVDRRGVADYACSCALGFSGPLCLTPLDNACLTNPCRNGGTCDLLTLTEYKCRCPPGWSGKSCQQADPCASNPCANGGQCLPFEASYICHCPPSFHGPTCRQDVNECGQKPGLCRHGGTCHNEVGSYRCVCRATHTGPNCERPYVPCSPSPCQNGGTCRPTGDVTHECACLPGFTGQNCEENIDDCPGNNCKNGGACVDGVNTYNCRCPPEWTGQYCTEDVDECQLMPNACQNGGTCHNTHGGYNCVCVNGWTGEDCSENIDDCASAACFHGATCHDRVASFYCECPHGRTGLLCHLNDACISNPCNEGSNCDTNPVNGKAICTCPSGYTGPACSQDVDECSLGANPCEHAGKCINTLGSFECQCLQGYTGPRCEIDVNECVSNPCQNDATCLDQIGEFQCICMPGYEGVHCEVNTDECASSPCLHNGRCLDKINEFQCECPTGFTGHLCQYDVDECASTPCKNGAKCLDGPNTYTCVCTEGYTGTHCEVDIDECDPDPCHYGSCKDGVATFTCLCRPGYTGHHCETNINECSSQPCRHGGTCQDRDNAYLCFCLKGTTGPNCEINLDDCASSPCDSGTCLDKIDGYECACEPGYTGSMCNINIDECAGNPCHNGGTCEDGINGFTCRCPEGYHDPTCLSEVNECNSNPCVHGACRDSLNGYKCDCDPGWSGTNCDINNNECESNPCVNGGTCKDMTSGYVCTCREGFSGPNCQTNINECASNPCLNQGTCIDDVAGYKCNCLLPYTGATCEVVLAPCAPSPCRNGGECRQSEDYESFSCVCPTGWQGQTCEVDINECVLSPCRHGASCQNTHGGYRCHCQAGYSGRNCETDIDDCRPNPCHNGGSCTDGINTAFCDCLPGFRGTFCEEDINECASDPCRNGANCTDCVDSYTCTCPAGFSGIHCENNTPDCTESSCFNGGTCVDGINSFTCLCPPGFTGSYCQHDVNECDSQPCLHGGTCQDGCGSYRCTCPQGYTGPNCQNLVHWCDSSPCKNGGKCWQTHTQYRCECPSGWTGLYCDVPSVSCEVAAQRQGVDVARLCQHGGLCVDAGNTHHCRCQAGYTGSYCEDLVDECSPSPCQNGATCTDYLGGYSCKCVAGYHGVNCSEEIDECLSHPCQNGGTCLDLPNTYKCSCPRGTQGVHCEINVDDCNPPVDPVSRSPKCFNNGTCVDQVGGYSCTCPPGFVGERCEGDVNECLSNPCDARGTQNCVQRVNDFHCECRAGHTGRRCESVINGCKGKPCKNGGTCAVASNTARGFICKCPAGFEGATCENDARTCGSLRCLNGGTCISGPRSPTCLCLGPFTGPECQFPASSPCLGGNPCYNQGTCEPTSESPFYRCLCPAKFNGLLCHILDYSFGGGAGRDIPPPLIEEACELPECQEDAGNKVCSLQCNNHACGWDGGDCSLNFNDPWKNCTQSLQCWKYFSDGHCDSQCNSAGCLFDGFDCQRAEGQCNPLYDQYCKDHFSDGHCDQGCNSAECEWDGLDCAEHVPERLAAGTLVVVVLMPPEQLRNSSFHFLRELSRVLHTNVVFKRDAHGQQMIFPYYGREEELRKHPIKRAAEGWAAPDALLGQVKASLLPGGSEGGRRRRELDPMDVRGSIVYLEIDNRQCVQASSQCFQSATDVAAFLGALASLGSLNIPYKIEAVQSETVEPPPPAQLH

Assay [2] concerns the target T1, recombinant Fc-tag-fused human Notch-1 …. Nature of the assay: ELISA; multi-point Fab-ELISA: target immobilised at 5 ug/ml on MaxiSorp plates; purified Fab 0.01 nM-1 uM in PT for 30 min; detected with HRP-conjugated anti-HIS antibody; EC50 from a one-site specific-binding fit. The settings on record: both partners purified.
In assay [3] the target is T2, recombinant Fc-tag-fused human Notch-1 extracellular domain (Homo sapiens, UniProt P46531).
T2 construct: Notch-1, human, extracellular domain; the R&D Systems product may hold only part of the ectodomain (surmise); also called N1; Fc-Notch; source: bought: R&D Systems
The assay is described as follows: BLI; Fabs immobilised on amine-reactive generation-2 or anti-Fab CH1 biosensors, target proteins in solution at at least three concentrations; 25°C, PBS; global fit to a 1:1 binding model; apparent constants (Fc fusions may dimerize). The settings on record: both partners purified.
T2 sequence (P46531 19-1735): as above

Assay [4] has as its target T3, Jagged-2 receptor ectodomain (Homo sapiens (assumed), UniProt Q9Y219).
T3 construct: Jagged-2 ectodomain; it may be an Fc fusion like the Notch proteins; also called J2
Nature of the assay: ELISA; single-point Fab-ELISA for specificity: proteins immobilised at 5 ug/ml on MaxiSorp plates; purified Fab at 1 uM; detected with HRP-conjugated anti-HIS antibody, Abs450. Conditions: both partners purified. (In general: ELISA stands for enzyme-linked immunosorbent assay.)

Assay [5] has as its target T1, recombinant Fc-tag-fused human Notch-1 …. The assay is described as follows: ELISA; phage-ELISA: Notch-1 and control proteins immobilised at 5 ug/ml on MaxiSorp plates; phage-displayed Fab at 10^12 PFU/ml in PBT for 30 min; detected with HRP-conjugated anti-M13 antibody, Abs450. The settings on record: one partner purified.

T3 sequence (Q9Y219 27-1080): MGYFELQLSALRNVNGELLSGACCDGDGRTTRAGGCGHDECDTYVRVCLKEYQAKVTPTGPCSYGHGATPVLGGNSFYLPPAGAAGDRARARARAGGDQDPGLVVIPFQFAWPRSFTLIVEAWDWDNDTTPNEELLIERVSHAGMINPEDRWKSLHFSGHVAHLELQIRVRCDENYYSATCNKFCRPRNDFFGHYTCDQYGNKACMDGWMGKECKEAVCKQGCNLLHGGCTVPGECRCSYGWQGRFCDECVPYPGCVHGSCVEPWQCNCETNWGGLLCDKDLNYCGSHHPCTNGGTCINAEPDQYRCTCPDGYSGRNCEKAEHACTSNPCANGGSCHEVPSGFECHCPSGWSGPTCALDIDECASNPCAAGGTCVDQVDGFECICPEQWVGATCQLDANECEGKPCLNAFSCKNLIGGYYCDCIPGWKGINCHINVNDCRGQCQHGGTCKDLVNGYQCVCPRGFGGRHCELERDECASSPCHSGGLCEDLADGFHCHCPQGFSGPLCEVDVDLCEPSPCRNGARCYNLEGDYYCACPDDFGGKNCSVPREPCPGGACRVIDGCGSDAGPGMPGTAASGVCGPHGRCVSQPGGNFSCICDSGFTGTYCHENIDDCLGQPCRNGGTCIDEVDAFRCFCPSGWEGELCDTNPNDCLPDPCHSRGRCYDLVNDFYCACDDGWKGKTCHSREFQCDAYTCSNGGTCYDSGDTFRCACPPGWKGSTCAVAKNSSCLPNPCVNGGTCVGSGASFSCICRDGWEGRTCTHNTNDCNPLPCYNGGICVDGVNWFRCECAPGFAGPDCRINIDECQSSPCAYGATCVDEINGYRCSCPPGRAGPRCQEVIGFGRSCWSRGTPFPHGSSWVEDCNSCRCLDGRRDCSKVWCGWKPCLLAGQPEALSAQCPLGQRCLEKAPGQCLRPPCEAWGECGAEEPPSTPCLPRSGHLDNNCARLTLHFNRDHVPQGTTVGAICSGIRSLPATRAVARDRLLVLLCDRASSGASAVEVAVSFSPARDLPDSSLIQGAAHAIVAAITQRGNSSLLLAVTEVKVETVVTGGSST

B1: Fab N1/F/1 (purified soluble Fab) (Fab, V domains shown)
VH: EVQLVESGGGLVQPGGSLRLSCAASGFNISSYSMHWVRQAPGKGLEWVAYISSSYGSTYYADSVKGRFTISADTSKNTAYLQMNSLRAEDTAVYYCARSWALDYWGQGTLVTVSS
VL: DIQMTQSPSSLSASVGDRVTITCRASQSVSSAVAWYQQKPGKAPKLLIYSASSLYSGVPSRFSGSRSGTDFTLTISSLQPEDFATYYCQQYWGPITFGQGTKVEIK
notes: light chain on the modified trastuzumab framework of Library-F (Persson et al., 2013); CDRs L1 and L2 fixed; Fab heavy chain on the modified trastuzumab framework of Library-F; short CDRH3; The Fab is detected by an anti-HIS antibody; source: E. coli BL21, purified (Protein-L resin)
Regarding B1, in assay [1], the Kd amounted to 0.45 ± 0.05 nM. Further, the EC50 (as a rule, the concentration at which the effect is half-maximal) in assay [2] was around 4 nM.

B2: Fab N1/F/1 (Fab, V domains shown)
VH: EVQLVESGGGLVQPGGSLRLSCAASGFNISSYSMHWVRQAPGKGLEWVAYISSSYGSTYYADSVKGRFTISADTSKNTAYLQMNSLRAEDTAVYYCARSWALDYWGQGTLVTVSS
VL: DIQMTQSPSSLSASVGDRVTITCRASQSVSSAVAWYQQKPGKAPKLLIYSASSLYSGVPSRFSGSRSGTDFTLTISSLQPEDFATYYCQQYWGPITFGQGTKVEIK
notes: Library-F Fab on a modified trastuzumab framework; Library-F Fab on a modified trastuzumab framework, CDRs L1 and L2 fixed; The Fab has a His tag (detected with anti-HIS antibody and biosensors); Library-F framework: Persson et al., 2013; source: E. coli BL21, purified (Protein-L resin)
On to B2, for which, in assay [3], the off-rate (koff) (in general, the first-order rate constant of dissociation) came out at 0.000118 s⁻¹ and the kon – broadly, the rate constant with which the complex forms – came out at 296000 M⁻¹ s⁻¹.

B3: Fab N1/F/R3 (purified soluble Fab) (Fab, V domains shown)
VH: EVQLVESGGGLVQPGGSLRLSCAASGFNIYSSYMHWVRQAPGKGLEWVASIYPYYGYTSYADSVKGRFTISADTSKNTAYLQMNSLRAEDTAVYYCARYFSYGPFYYGSGLDYWGQGTLVTVSS
VL: DIQMTQSPSSLSASVGDRVTITCRASQSVSSAVAWYQQKPGKAPKLLIYSASSLYSGVPSRFSGSRSGTDFTLTISSLQPEDFATYYCQQGFSLITFGQGTKVEIK
notes: light chain on the modified trastuzumab framework of Library-F (Persson et al., 2013); CDRs L1 and L2 fixed; clone reconstructed from NGS information; Fab heavy chain on the modified trastuzumab framework of Library-F; medium CDRH3 length; The Fab is detected by an anti-HIS antibody; source: E. coli BL21, purified (Protein-L resin)
Take B3: the binding result in assay [4] is given as “binds”. Besides, in assay [1], the Kd turned out to be 6.6 nM. For the same molecule, the EC50 in assay [2] was 37 nM.

B4: phage-displayed Fab N1/F/R3 (Fab, V domains shown)
VH: EVQLVESGGGLVQPGGSLRLSCAASGFNIYSSYMHWVRQAPGKGLEWVASIYPYYGYTSYADSVKGRFTISADTSKNTAYLQMNSLRAEDTAVYYCARYFSYGPFYYGSGLDYWGQGTLVTVSS
VL: DIQMTQSPSSLSASVGDRVTITCRASQSVSSAVAWYQQKPGKAPKLLIYSASSLYSGVPSRFSGSRSGTDFTLTISSLQPEDFATYYCQQGFSLITFGQGTKVEIK
notes: as the light chain of m16; as the heavy chain of m16; Reconstructed by Kunkel mutagenesis in the MBP phagemid
For the molecule B4, in assay [5], the “fold weaker phage-ELISA signal than the high-frequency Fabs” value is around 10 fold.

B5: phage-displayed Fab N1/ModF/1 (Fab, V domains shown)
VH: EVQLVESGGGLVQPGGSLRLSCAASGFNLYSSYMHWVRQAPGKGLEWVAYISPSYSYTYYADSVKGRFTISADTSKNTAYLQMNSLRAEDTAVYYCARWGHSPSGVGWYGALDYWGQGTLVTVSS
VL: DIQMTQSPSSLSASVGDRVTITCRASQSVSSAVAWYQQKPGKAPKLLIYSASSLYSGVPSRFSGSRSGTDFTLTISSLQPEDFATYYCQQPSSHSAALITFGQGTKVEIK
notes: light chain on the modified trastuzumab framework of the Modified-F library (template: anti-MBP Fab phagemid of Library-F, Persson et al., 2013); CDRs L1 and L2 fixed; Fab heavy chain on the modified trastuzumab framework of the Modified-F library; The Modified-F library uses an M13 system that allows bivalent Fab display
In the case of B5, in assay [5], the binding result is “binds”.

B6: Fab N1/ModF/2 (Fab, V domains shown)
VH: EVQLVESGGGLVQPGGSLRLSCAASGFNLYSSYIHWVRQAPGKGLEWVAYISPYSGSTYYADSVKGRFTISADTSKNTAYLQMNSLRAEDTAVYYCARYGYAYHPYHSGYWYGALDYWGQGTLVTVSS
VL: DIQMTQSPSSLSASVGDRVTITCRASQSVSSAVAWYQQKPGKAPKLLIYSASSLYSGVPSRFSGSRSGTDFTLTISSLQPEDFATYYCQQVSAGYGPPITFGQGTKVEIK
notes: Modified-F library Fab on a modified trastuzumab framework; Modified-F library Fab on a modified trastuzumab framework, CDRs L1 and L2 fixed; The Fab has a His tag (detected with anti-HIS antibody and biosensors); Template phagemid derived from the anti-MBP Fab of Library-F (Persson et al., 2013); source: E. coli BL21, purified (Protein-L resin)
On to B6, for which, in assay [3], the koff turned out to be 1.91e-05 s⁻¹ and the on-rate (kon) was 158000 M⁻¹ s⁻¹.

B7: Fab N1/ModF/5 (Fab, V domains shown)
VH: EVQLVESGGGLVQPGGSLRLSCAASGFNISSSYMHWVRQAPGKGLEWVASIYSYSGSTYYADSVKGRFTISADTSKNTAYLQMNSLRAEDTAVYYCARSGYSGVSGSVYSYWPFYGLDYWGQGTLVTVSS
VL: DIQMTQSPSSLSASVGDRVTITCRASQSVSSAVAWYQQKPGKAPKLLIYSASSLYSGVPSRFSGSRSGTDFTLTISSLQPEDFATYYCQQGPYHGYSLITFGQGTKVEIK
notes: as for B6
On to B7, for which, in assay [3], the koff amounted to 8.15e-05 s⁻¹ and the association rate constant (kon) is 124000 M⁻¹ s⁻¹.

B8: Fab N1/ModF/2 (purified soluble Fab) (Fab, V domains shown)
VH: EVQLVESGGGLVQPGGSLRLSCAASGFNLYSSYIHWVRQAPGKGLEWVAYISPYSGSTYYADSVKGRFTISADTSKNTAYLQMNSLRAEDTAVYYCARYGYAYHPYHSGYWYGALDYWGQGTLVTVSS
VL: DIQMTQSPSSLSASVGDRVTITCRASQSVSSAVAWYQQKPGKAPKLLIYSASSLYSGVPSRFSGSRSGTDFTLTISSLQPEDFATYYCQQVSAGYGPPITFGQGTKVEIK
notes: light chain on the modified trastuzumab framework of the Modified-F library (template: anti-MBP Fab phagemid of Library-F, Persson et al., 2013); CDRs L1 and L2 fixed; Fab heavy chain on the modified trastuzumab framework of the Modified-F library; long CDRH3; The Fab is detected by an anti-HIS antibody; source: E. coli BL21, purified (Protein-L resin)
Take B8: the Kd in assay [1] came to 0.16 nM. The EC50 in assay [2] worked out at 1.7 nM.

B9: Fab N1/ModF/5 (purified soluble Fab) (Fab, V domains shown)
VH: EVQLVESGGGLVQPGGSLRLSCAASGFNISSSYMHWVRQAPGKGLEWVASIYSYSGSTYYADSVKGRFTISADTSKNTAYLQMNSLRAEDTAVYYCARSGYSGVSGSVYSYWPFYGLDYWGQGTLVTVSS
VL: DIQMTQSPSSLSASVGDRVTITCRASQSVSSAVAWYQQKPGKAPKLLIYSASSLYSGVPSRFSGSRSGTDFTLTISSLQPEDFATYYCQQGPYHGYSLITFGQGTKVEIK
notes: as for B8
Regarding B9, the Kd in assay [1] stood at 0.68 nM. In assay [2], the EC50 was found to be 2.4 nM.
